Common to all, as to assay: cleavage_in_vitro
The target of series [1] is T1, ScaI-HF H193A/S201F (Streptomyces caespitosus) (UniProt O52691).
T1 sequence: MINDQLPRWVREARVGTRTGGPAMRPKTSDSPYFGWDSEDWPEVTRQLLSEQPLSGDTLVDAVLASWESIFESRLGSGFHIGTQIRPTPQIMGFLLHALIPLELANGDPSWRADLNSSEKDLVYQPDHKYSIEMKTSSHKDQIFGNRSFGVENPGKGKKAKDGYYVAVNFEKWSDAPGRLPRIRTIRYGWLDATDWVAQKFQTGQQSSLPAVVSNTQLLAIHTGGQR
As to conditions: NEB4, 37 C, Mg2+; FI NEB1-3: 4000, 1000, 2000.

Series [2] deals with T2, BsmBI-HF N185Y/R232A (Bacillus stearothermophilus).
T2 sequence: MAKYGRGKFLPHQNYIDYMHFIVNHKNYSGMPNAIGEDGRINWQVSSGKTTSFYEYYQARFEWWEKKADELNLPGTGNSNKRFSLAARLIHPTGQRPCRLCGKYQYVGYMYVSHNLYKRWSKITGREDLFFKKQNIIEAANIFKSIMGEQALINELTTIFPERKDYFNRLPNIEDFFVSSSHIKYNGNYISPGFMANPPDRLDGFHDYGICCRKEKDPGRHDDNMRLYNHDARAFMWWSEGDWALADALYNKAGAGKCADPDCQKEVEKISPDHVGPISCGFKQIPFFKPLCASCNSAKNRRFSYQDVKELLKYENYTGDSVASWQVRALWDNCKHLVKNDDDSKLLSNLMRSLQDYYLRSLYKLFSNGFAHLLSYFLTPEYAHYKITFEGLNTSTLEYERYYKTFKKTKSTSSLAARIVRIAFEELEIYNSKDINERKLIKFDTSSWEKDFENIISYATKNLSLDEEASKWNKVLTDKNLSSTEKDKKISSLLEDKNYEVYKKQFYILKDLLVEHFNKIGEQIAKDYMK
To be noted: NEB4, 55 C, Mg2+; listed as BsmBI; FI NEB1-3: 2, >=500, >=64.

The subject of series [3] is T3, NcoI-HF A2T/R31A (Nocardia corallina).
T3 sequence: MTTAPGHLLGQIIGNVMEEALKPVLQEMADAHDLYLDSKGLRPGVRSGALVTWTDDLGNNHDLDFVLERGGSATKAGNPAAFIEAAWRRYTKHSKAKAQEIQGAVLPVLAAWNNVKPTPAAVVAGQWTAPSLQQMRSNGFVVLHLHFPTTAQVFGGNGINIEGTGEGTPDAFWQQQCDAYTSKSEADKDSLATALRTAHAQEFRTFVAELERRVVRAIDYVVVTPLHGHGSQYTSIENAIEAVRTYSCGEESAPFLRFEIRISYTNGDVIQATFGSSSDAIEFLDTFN
As to conditions: NEB4, 37 C, Mg2+; Table 3 prints >=64000; FI NEB1-3: >=4000, >=4000, >=1000.

Series [4] concerns T4, BsmBI (Bacillus stearothermophilus).
T4 sequence: T2 sequence with Y185N, A232R
As to conditions: NEB4, 55 C, Mg2+; FI NEB1-3: 1, 8, 120.

Series [5] has as its system T5, SspI-HF Y98F (Sphaerotilus species).
T5 sequence: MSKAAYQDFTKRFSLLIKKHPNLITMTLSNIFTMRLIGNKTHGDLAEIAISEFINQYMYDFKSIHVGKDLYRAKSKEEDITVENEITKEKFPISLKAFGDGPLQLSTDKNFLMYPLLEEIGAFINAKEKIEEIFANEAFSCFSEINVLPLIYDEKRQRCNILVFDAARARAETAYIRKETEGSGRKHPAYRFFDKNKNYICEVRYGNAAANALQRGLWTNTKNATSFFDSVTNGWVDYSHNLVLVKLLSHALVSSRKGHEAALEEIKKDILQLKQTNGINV
As to conditions: NEB4, 37 C, Mg2+; FI NEB1-3: >=4000, 120, >=32.

Series [6] concerns the target EcoRI (Escherichia coli RY13) (UniProt P00642). To be noted: NEB4, 37 C, Mg2+; FI NEB1-3: 250, 4, 250.
Series [7] has as its target T6, PstI (Providencia stuartii 164) (UniProt P00640).
T6 sequence: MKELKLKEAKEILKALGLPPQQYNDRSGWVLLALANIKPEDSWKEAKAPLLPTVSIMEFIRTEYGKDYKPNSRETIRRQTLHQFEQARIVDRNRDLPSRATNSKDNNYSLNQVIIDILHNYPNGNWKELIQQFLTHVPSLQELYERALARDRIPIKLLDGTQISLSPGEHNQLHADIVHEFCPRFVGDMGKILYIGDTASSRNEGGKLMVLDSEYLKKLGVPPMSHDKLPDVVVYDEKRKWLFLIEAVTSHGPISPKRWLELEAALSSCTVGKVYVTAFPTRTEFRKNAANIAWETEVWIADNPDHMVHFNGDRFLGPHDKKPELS
To be noted: NEB4, 37 C, Mg2+; FI NEB1-3: 64, 32, 120.

Series [8] has as its system T7, SspI (Sphaerotilus species).
T7 sequence: T5 sequence with F98Y
As to conditions: NEB4, 37 C, Mg2+; FI NEB1-3: 64, 16, 32.

Residue numbers refer to the chain shown, from its start.

Take lambda phage DNA: the activity (fidelity index) in series [1] was 1000; in series [2], over 500; in series [3], over 16000; in series [4], 4; in series [5] it was 500; in series [6] it was 4. Also, the activity (fidelity index) in series [7] worked out at 8; in series [8] it was 16.

(Values after patent publication US20130115678.)
